EC50 (luciferase reporter, PD-1/PD-L1 blockade MOA assay; blocked partner: PD-1 on Jurkat-PD1 cells) and Kd data for one substance are collected here from patent US20240067728A1.

Test [1] addresses PD-L1 on CHO-PD-L1 cells (Promega PD-1/PD-L1 Blockade Bioassay) (UniProt Q9NZQ7).
The target in test [2] is PD-L1-His antigen (human) (UniProt Q9NZQ7). The test is described as follows: SPR (Biacore T200), PD-L1-His immobilised on chip, antibody as mobile phase, 1:1 Binding fit. (Surface plasmon resonance follows binding to a sensor surface in real time, without labels.)
PD-L1-His antigen (human), sequence (Q9NZQ7 other isoform, or with tags, fused parts or gaps limits assumed): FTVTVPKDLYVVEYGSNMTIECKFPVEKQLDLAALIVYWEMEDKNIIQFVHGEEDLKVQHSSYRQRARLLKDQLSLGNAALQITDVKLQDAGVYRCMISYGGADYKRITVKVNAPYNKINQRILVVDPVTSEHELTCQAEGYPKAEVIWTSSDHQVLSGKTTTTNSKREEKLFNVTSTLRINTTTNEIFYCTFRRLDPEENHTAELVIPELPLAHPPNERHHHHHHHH

PD-L1 on CHO-PD-L1 cells (Promega PD-1/PD-L1 Blockade Bioassay), sequence (Q9NZQ7 19-290 limits assumed): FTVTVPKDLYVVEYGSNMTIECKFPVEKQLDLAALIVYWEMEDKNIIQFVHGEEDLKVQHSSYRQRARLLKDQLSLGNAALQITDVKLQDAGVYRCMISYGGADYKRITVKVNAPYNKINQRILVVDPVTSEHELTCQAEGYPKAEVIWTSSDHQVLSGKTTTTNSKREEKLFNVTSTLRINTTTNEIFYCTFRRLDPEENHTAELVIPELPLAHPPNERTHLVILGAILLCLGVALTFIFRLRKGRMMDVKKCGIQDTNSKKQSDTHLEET

The term Kd denotes the constant that tells how readily two partners part at equilibrium. A lower Kd goes with higher affinity. For “ATE antibody (amino acid sequence identical to atezolizumab)”, the EC50 (luciferase reporter, PD-1/PD-L1 blockade MOA assay; blocked partner: PD-1 on Jurkat-PD1 cells) in test [1] came to 0.087 µg/mL. Besides, the Kd in test [2] was determined as 1.84 nM.
